Data as given in PMC9739478.

Biological target: human von Willebrand factor (vWF) (human) (UniProt P04275)

## glycoprotein Ib alpha chain (GPIbα) (from UniProt P07359 17-652) (receptor)
  platelet adherence to vWF-coated surface (LDH assay, normalised to PRP only = 100%) in the presence of GPIb-NPs, 1 mg/mL: 72%
  platelet adherence to vWF-coated surface (LDH assay, normalised to PRP only = 100%) in the presence of dual-NPs (GPIbα and anti-CD34 HuscFv on one NP), 1 mg/mL: 76%
  platelet adherence to vWF-coated surface (LDH assay, normalised to PRP only = 100%) in the presence of free GPIb: 86%
